From patent publication US6670136 (TRUSTEES OF COLUMBIA UNIVERSITY IN THE CITY OF NEW YORK, dated 2003)

Tests used:
[1] = molecular target: cellular RAGE on human cells (HUVEC, Molt-4, PBMC, Jurkat) (human, UniProt Q15109 23-404); test: cell-based or functional assay
[2] = molecular target: T1, RAGE on macrophage-like BV2 cells (macrophage (MP) RAGE) (UniProt Q62151 23-402, limits assumed); test: binding to macrophage RAGE in culture wells
T1 construct: whole, on cells; also called BV-2 macrophages

[3] = molecular target: T2, human soluble RAGE (sRAGE), prepared from a baculovirus expression system (human, UniProt Q15109 23-342); test: binding to immobilized RAGE in culture wells
T2 construct: extracellular domain; Murine sRAGE was used only in the in vivo studies; also called purified RAGE; immobilized RAGE
Description: (Panel C–D) EN-RAGE binds purified RAGE (C) and BAECs (D): In C, human soluble RAGE was immobilized onto the wells of plastic dishes and in D, confluent BAECs were cultured onto tissue culture-treated wells. […] Where indicated, radiolabelled EN-RAGE (100 nM) was incubated with the indicated amount of excess sRAGE two hours prior to binding assay, or wells were preincubated for two hours with the indicated concentration of rabbit nonimmune IgG, or polyclonal monospecific rabbit anti-EN-RAGE IgG or anti-RAGE: IgG prior to binding assay and results reported as % maximal specific binding ±SD of the mean. These experiments were performed at least five times with analogous results.
(§1) Radioligand binding assays were performed in 96-well dishes to which had been adsorbed either purified human RAGE (5 μg/well) or bovine aortic endothelial cells. In the former case, after adsorption of human soluble RAGE to the plastic dish in carbonate/bicarbonate buffer (pH 9.3) overnight, wells were then washed with PBS containing Tween 20 (0.05%). Unoccupied binding sites on the plastic wells were blocked by incubation with PBS containing calcium/magnesium and bovine serum albumin (1%) for two hours at 37° C. […] Solution was then aspirated from the wells and counted in a gamma counter (LKB, Gaithersburg, Md.).

[4] = molecular target: T3, RAGE on bovine aortic endothelial cells (BAEC RAGE) (bovine, UniProt Q28173 23-416); test: binding to endothelial cell RAGE in culture wells
T3 construct: whole, on cells; The target is endogenous RAGE on confluent BAEC monolayers; also called BAECs; endothelial (EC) RAGE
T3 sequence (looked up): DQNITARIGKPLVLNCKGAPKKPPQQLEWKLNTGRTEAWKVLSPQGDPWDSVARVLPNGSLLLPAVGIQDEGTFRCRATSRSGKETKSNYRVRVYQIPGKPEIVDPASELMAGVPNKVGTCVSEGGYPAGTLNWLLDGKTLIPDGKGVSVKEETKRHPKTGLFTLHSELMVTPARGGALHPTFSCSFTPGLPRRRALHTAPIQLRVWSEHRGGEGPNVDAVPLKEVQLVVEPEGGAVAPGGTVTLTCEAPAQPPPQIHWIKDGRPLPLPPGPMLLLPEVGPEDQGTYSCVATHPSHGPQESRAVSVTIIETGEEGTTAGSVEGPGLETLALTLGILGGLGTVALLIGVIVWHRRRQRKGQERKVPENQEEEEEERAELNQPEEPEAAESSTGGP
Description: (§2) Where indicated, radiolabelled EN-RAGE (100 nM) was incubated with the indicated amount of excess sRAGE two hours prior to binding assay, or wells were preincubated for two hours with the indicated concentration of rabbit nonimmune IgG, or polyclonal monospecific rabbit anti-EN-RAGE IgG or anti-RAGE: IgG prior to binding assay and results reported as % maximal specific binding ±SD of the mean. These experiments were performed at least five times with analogous results.
as §1, with “C. After aspiration of the wells, a radioligand binding assay was performed in the presence of the indicated concentration of radiolabelled EN-RAGE ± an 50-fold molar excess of unlabelled EN-RAGE in PBS containing calcium/magnesium and BSA, 0.2%, for 3 hrs at 37° C.” for “C.”, “Md.). […]” for “Md.).”

[5] = molecular target: T3, RAGE on bovine aortic endothelial cells …; test: radioligand binding: 125I-EN-RAGE on confluent bovine aortic endothelial cells
Description: as §2
as §1, with “C. After aspiration of the wells, a radioligand binding assay was performed in the presence of the indicated concentration of radiolabelled EN-RAGE ± an 50-fold molar excess of unlabelled EN-RAGE in PBS containing calcium/magnesium and BSA, 0.2%, for 3 hrs at 37° C.” for “C.”, “Md.). […]” for “Md.).”

[6] = molecular target: T2, human soluble RAGE (sRAGE), prepared …; test: radioligand binding: 125I-EN-RAGE on human sRAGE adsorbed to plastic wells, with or without 50-fold unlabelled EN-RAGE
Description: as §2
as §1, with “C. After aspiration of the wells, a radioligand binding assay was performed in the presence of the indicated concentration of radiolabelled EN-RAGE ± an 50-fold molar excess of unlabelled EN-RAGE in PBS containing calcium/magnesium and BSA, 0.2%, for 3 hrs at 37° C.” for “C.”, “Md.). […]” for “Md.).”

cellular RAGE on human cells (HUVEC, Molt-4, PBMC, Jurkat), sequence (Q15109 23-404): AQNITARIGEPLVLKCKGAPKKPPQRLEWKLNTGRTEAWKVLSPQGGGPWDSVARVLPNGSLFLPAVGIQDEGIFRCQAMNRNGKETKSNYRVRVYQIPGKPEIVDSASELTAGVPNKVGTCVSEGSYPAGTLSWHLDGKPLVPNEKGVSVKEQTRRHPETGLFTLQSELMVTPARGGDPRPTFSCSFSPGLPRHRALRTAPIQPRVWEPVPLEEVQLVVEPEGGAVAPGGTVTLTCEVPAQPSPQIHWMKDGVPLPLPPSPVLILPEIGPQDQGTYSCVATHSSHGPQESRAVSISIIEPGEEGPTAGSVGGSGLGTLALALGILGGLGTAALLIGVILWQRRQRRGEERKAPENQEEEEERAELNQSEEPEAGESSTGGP
T2 sequence (Q15109 23-342): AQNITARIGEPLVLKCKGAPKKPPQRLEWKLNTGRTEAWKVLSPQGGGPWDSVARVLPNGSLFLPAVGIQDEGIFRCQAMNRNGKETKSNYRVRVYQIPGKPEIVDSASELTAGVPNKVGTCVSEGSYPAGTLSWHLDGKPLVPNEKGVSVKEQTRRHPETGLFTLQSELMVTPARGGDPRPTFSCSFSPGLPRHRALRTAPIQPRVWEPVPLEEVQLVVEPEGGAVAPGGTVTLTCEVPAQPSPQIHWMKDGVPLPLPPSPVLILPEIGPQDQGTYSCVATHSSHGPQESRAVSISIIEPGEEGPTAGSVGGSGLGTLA
T1 sequence (Q62151 23-402 limits assumed): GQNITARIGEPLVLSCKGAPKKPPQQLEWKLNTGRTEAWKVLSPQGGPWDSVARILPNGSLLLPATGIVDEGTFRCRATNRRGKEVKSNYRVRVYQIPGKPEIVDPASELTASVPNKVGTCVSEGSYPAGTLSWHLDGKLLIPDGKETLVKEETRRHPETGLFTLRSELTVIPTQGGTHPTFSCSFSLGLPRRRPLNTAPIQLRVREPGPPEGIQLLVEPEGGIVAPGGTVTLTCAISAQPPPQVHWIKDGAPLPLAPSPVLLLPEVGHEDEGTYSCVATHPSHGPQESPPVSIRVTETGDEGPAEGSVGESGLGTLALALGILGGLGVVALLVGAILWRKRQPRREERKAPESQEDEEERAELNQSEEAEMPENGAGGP

B1: purified S100B from human brain (Calbiochem-Novabiochem) (ligand, UniProt P04271 2-92, looked up)
chain: SELEKAMVALIDVFHQYSGREGDKHKLKKSELKELINNELSHFLEEIKEQEVVDKVMETLDNDGDGECDFQEFMAFVAMVTTACHEFFEHE
For B1, the “nuclear translocation of NF-kB in HUVEC (EMSA)” value [1] was roughly 13.9 fold.

B2: EN-RAGE (Extracellular Novel RAGE binding protein), recombinant bovine, expressed in Sf9 cells (ligand)
chain: TKLEDHLEGIINIFHQYSVRVGHFDTLNKRELKQLITKELPKTLQNTKDQPTIDKIFQDLDADKDGAVSFEEFVVLVSRVLKTAHIDIHK
notes: Recombinant protein made from a bovine lung cDNA in baculovirus/Sf9; In the cell assays it was unlabelled; also called radiolabelled EN-RAGE
B2 was tested, and the “adhesion of Molt-4 cells to cultured ECs” value [1] was 7 fold, the “expression of cell-surface VCAM-1 on cultured ECs” value [1] was 4.3 fold and the “nuclear NF-kB in HUVEC (EMSA, densitometry)” value [1] was roughly 5 fold. It also gave a Kd [2] of roughly 75 nM, a Kd [3] of roughly 75 nM and a Kd [4] of roughly 75 nM. For the same binder, the Kd [5] was roughly 90.3 nM and the Kd [6] was roughly 91 nM.
